From patent publication US20240132603A1 (HARBOUR BIOMED US, published 2024)
Substitutions are numbered along the chain they refer to. Where two headings read alike, the source gives them in different places. Each block holds one binder with its values, some of them ahead of it.

Legend:
human CCR8 [1] = target: T1, human CCR8 (human, UniProt P51685 1-355); assay: FACS, CHO-K1-hCCR8 cells
T1 construct: whole, on cells; construct used for the overexpressing cell lines is not described; also called hCCR8
Description: (§1) Cells overexpressing human CCR8 were digested with pancreatin, counted and resuspended to a cell density of 1E6 cells/mL. The cell suspension was added to a 96-well V-bottom plate at 100 μL/well and centrifuged at 300 g for 5 min, and the supernatant was discarded. The anti-CCR8 antibodies provided herein was used as a primary antibody and diluted in a 5-fold gradient with an FACS buffer (DPBS containing 2% FBS) from 200 nM. The diluted primary antibody was added at 100 μL/well to resuspend the cells, and the mixture was incubated at 4° C. for 1 h. The plate was washed twice with DPBS and centrifuged at 300×g for 5 min, and the supernatant was discarded. The secondary antibody diluted in a 1:1000 ratio with an FACS buffer was added at 100 μL/well to suspend the cells, and the mixture was incubated at 4° C. for 40 min. The plate was washed twice with DPBS and centrifuged at 300×g for 5 min, and the supernatant was discarded. DPBS was added at 200 μL/well to suspend the cells, and the mixture was loaded on an FACS machine for analysis.

cynomolgus monkey CCR8 [2] = target: T2, cynomolgus monkey CCR8 (cynomolgus monkey, UniProt G7NYJ2 1-355); assay: FACS on CHO-K1 cells overexpressing cynomolgus monkey CCR8
T2 construct: whole, on cells; also called CynoCCR8
Description: as §1, with “cynomolgus monkey CCR8, CHO-K1-CynoCCR8,” for “human CCR8”

human CCR8 [3] = target: T1, human CCR8; assay: FACS, CHO-K1-hCCR8 cells; remark: listed apart in the source
Method in brief: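 Flow cytometry measures antibody binding to the overexpressing cells. These are first incubated at 4 °C for 1 h with test antibody titrated 5-fold down from 200 nM, then for 40 min with secondary antibody diluted 1:1000.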

cynomolgus monkey CCR8 [4] = target: T2, cynomolgus monkey CCR8; assay: FACS, CHO-K1-CynoCCR8 cells
Method in brief: (§2)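 Anti-CCR8 antibodies titrated in 5-fold steps from 200 nM onto 1E6 cells/mL CHO-K1-CynoCCR8 in DPBS/2% FBS, 1 h at 4 °C. Bound antibody detected with 1:1000 secondary antibody, 40 min at 4 °C, then flow cytometry.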

human CCR8 [5] = target: T1, human CCR8; assay: cell-based or functional assay
human CCR8 [6] = target: T1, human CCR8; assay: FACS, Baf3-hCCR8 cells
Description: as §1

human CCR8 [7] = target: T1, human CCR8; assay: cell-based or functional assay; remark: listed apart in the source
human CCR8 [8] = target: T1, human CCR8; assay: FACS, HEK293-hCCR8 cells
Description: as §1

human CCR8 [9] = target: T1, human CCR8; assay: FACS, HEK293-hCCR8 cells; remark: listed apart in the source
Description: as §1

cynomolgus monkey CCR8 [10] = target: T2, cynomolgus monkey CCR8; assay: FACS, CHO-K1-CynoCCR8 cells; remark: listed apart in the source
Method in brief: as §2

cynomolgus monkey CCR8 [11] = target: T2, cynomolgus monkey CCR8; assay: FACS, CHO-K1-CynoCCR8 cells; remark: listed apart in the source
Description: as §1, with “cynomolgus monkey CCR8, CHO-K1-CynoCCR8,” for “human CCR8”

human CCR8 [12] = target: T1, human CCR8; assay: FACS competition on HEK293-hCCR8 cells against a biotin-labelled anti-CCR8 antibody at its EC80; the labelled antibody of this panel is not named on the sheet
Description: (§3) The antibody was conjugated with Sulfo-NHS-LC-Biotin at a molar ratio of 5:1 (1 mol antibody was added to 5 mol Sulfo-NHS-LC-Biotin) with reference to the product instructions (ThermoFisher, Cat No. A39257) and incubated on ice for 2 h. The coupled antibody was purified with a Zeba desalting column (ThermoFisher, Cat No. 89882). Cells overexpressing human CCR8, HEK293-hCCR8, were added to a V-bottom 96-well plate at a density of 1E5 cells/well and centrifuged at 300 g for 5 min, and the supernatant was discarded. The competitive antibody was serially diluted in a ratio of 1:10 from 200 nM to obtain 8 concentration points. The Biotin-antibody and the competition antibody were mixed in a 1:1 ratio on an HEK293 cell line overexpressing human CCR8 by the binding EC₈₀ concentration. The cells in the 96-well plate were resuspended and incubated at 4° C. for 1 h. The plate was washed twice with DPBS at 200 μL/well. The secondary antibody diluted in a 1:1000 ratio was added at 100 μL/well, and the mixture was incubated at 4° C. for 40 min. The plate was washed twice with DPBS at 200 μL/well. Finally, DPBS was […] at 200 μL/well to suspend the cells, and the mixture was loaded on an FACS machine for analysis.

human CCR8 [13] = target: T1, human CCR8; assay: as above; remark: listed apart in the source
Description: as §3

human CCR8 [14] = target: T1, human CCR8; assay: as above; remark: listed apart in the source
Description: as §3

human CCR8 [15] = target: T1, human CCR8; assay: as above; remark: listed apart in the source
Description: as §3

human CCR8 [16] = target: T1, human CCR8; assay: as above; remark: listed apart in the source
Description: as §3

human CCR8 [17] = target: T1, human CCR8; assay: FACS on CHO-K1 cells overexpressing human CCR8
Description: as §1

T1 sequence (P51685 whole entry): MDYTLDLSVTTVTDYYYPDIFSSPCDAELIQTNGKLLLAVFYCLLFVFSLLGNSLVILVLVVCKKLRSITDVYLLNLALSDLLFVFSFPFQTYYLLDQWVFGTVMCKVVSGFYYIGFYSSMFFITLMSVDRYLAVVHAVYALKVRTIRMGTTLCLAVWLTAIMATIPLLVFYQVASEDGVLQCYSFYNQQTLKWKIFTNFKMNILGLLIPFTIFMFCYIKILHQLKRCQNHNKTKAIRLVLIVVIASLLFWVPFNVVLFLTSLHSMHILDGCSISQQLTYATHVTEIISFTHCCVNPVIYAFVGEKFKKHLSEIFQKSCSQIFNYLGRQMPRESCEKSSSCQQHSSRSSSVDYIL
T2 sequence (G7NYJ2 entry or part of it): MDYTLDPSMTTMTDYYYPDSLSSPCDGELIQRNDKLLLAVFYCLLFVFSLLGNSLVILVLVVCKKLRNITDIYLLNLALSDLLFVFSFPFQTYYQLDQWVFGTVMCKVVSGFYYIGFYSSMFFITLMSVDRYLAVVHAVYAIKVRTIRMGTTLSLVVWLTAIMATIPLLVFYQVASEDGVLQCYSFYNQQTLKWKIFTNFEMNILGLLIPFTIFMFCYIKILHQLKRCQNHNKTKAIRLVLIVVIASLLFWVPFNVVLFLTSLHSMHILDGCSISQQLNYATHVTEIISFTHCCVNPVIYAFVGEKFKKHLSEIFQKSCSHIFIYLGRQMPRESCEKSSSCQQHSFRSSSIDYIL

B1: PR004342 (antibody, human IgG1, kappa, V domains shown)
VH: EVQLVESGGGLVQPKGSLKLSCAASGFTFNTYAMNWVRQAPGKGLEWVARIRSKSNNYATYYADSVKDRFTISRDDSQSMLYLQMNNLKTEDTAMYYCVRGKENGNYYAMDFWGQGTSVTVSA
VL: DIVMTQSPLSLPVTPGEPASISCRSSKSLLHSNGNTYLYWFLQKPGQSPQLLIYRMSNLASGVPDRFSGSGSGTDFTLKISRVEAEDVGVYYCMQHLEYPFTFGQGTKLEIKR
EC50 (human CCR8 [1]): 0.8 nM
binding result (cynomolgus monkey CCR8 [2]): no binding (tested: 200 nM)

B3: PR004668 (antibody, human IgG1, kappa)
heavy: not shown
light: DIVMTQSPLSLPVTPGEPASISCRSSKSLLHSNGKIYLYWFLQKPGQSPQLLIYRMSNLASGVPDRFSGSGSGTDFTLKISRVEAEDVGVYYCMQHLEYPLTFGQGTKLEIKRTVAAPSVFIFPPSDEQLKSGTASVVCLLNNFYPREAKVQWKVDNALQSGNSQESVTEQDSKDSTYSLSSTLTLSKADYEKHKVYACEVTHQGLSSPVTKSFNRGEC
notes: humanized; same VH/VL as PR004520, other heavy chain entry
EC50 (human CCR8 [3]): 0.62 nM
EC50 (cynomolgus monkey CCR8 [4]): 1.88 nM
EC50 (read off the curve) (cynomolgus monkey CCR8 [2]): ~2 nM

B4: PR004125 (antibody, human IgG1, kappa)
heavy: not shown
light: DIVMTQAAPSVPVTPGESVSISCRSSKSLLHSNGNTYLYWFLQRPGQSPQLLIYRMSNLASGVPDRFSGSGSGTAFTLRISRVEAEDVGVYYCMQHLEYPLTFGAGTKLEMKRTVAAPSVFIFPPSDEQLKSGTASVVCLLNNFYPREAKVQWKVDNALQSGNSQESVTEQDSKDSTYSLSSTLTLSKADYEKHKVYACEVTHQGLSSPVTKSFNRGEC
notes: chimeric, human IgG1 constant region
EC50, ADCC reporter gene activity (Jurkat/FcγR III-NFAT effector cells) (human CCR8 [5]): 0.59 nM
EC50 (human CCR8 [6]): 0.21 nM
Bottom %, blocking of CCL1-stimulated calcium flux (human CCR8 [7]): 23%
IC50(nM), blocking of CCL1-stimulated calcium flux (human CCR8 [7]): 1.16 nM
EC50 (human CCR8 [3]): 0.5 nM
EC50 (human CCR8 [8]): 0.72 nM
EC50 (human CCR8 [9]): 0.66 nM
EC50 (cynomolgus monkey CCR8 [10]): 1.16 nM
EC50 (cynomolgus monkey CCR8 [11]): 2.44 nM
IC50 (read off the curve) (human CCR8 [12]): ~3 nM
IC50 (read off the curve) (human CCR8 [13]): ~2 nM
IC50 (read off the curve) (human CCR8 [14]): ~2 nM
IC50 (read off the curve) (human CCR8 [15]): ~2 nM
IC50 (read off the curve) (human CCR8 [16]): 1 to 2 nM

B7: PR005171 (antibody, human IgG1, kappa, V domains shown)
VH: B1 VH
VL: DIVMTQAAPSVPVTPGESVSISCRSSKSLLHSNGKIYLYWFLQRPGQSPQLLIYRMSNLASGVPDRFSGSGSGTAFTLRISRVEAEDVGVYYCMQHLEYPMTFGAGTKLEIKR
notes: heavy chain entry as PR004128
EC50 (read off the curve) (human CCR8 [17]): ~1 nM

More lines, now with the values ahead:

EC50 (human CCR8 [1]): 0.91 nM
binding result (cynomolgus monkey CCR8 [2]): no binding (tested: 200 nM)
B2: PR004346 (antibody, human IgG1, kappa, V domains shown)
VH: B1 VH
VL: B1 VL with P15L, E17Q, L42Q, K44R, Q50R

EC50 (read off the curve) (human CCR8 [17]): ~1 nM
B5: PR005170 (antibody, human IgG1, kappa, V domains shown)
VH: B1 VH
VL: B7 VL with M101I
notes: heavy chain entry as PR004128

EC50 (read off the curve) (human CCR8 [17]): ~2 nM
B6: PR005172 (antibody, human IgG1, kappa, V domains shown)
VH: B1 VH
VL: B7 VL with M101V
notes: heavy chain entry as PR004128

binding result (human CCR8 [17]): binds
B8: PR004970 (antibody, human IgG1, kappa, V domains shown)
VH: EVQLVESGGGLVQPGGSLRLSCAASGFTFSSYWMSWVPQAPGKGLEWVANIKQDGSAKFYVDSVKGRFTISRDNAKNSLYLQMNSLRAEDTAVYYCARSWGFAYWGQGTLVTVSS
VL: DIQMTQSPSSLSASVGDRVTITCRASQGISNYLAWYQQKPGKVPKLLIYAASTLQSGVPSRFSGSGSGTDFTLTISSLQPEDVATYYCQKYNSAPWTFGQGTKVEIKR
notes: fully human, from single cell clone screening
